This note sets out measurements from patent US20190322720A1.

Assay [1] has as its target 16C3 antigen (CEACAM5 and/or CEACAM6) on tumor cells. Briefly: flow cytometry, HT-29 colorectal cells. Background: A flow cytometer gives signals particle by particle.
For assay [2] the target is unchanged. Briefly: rosetting assay, antibody-coupled beads on CFPAC-1 cells.
The target is the same in assay [3]. Briefly: rosetting assay, h16C3-coupled beads on CFPAC-1 cells in the presence of 4B6 at 5 µg/ml.
The target is the same in assay [4]. Briefly: flow cytometry, CFPAC-1 pancreatic cells.
Assay [5] has the same target. As to the kind of experiment: flow cytometry, HT-29 colorectal cells. This is another data set of the same source.
The target is the same in assay [6]. Briefly: flow cytometry, LS174T colorectal cells.
Assay [7] shares this target. As to the kind of experiment: flow cytometry, CFPAC-1 pancreatic cells. This is another data set of the same source.
For assay [8] the target is unchanged. As to the kind of experiment: flow cytometry, LS174T colorectal cells. The source holds these as a separate data set.

B1: h16C3 (antibody, from a related filing, V domains shown)
VH: QVQLVQSGAEVKKPGASVKVSCKASGYTFTDYAMHWVRQAPGQRLEWMGLISTYSGDTKYNQNFQGRVTMTVDKSASTAYMELSSLRSEDTAVYYCARGDYSGSRYWFAYWGQGTLVTVSS
VL: DIQMTQSPSSLSASVGDRVTITCQASENIYGALNWYQRKPGKSPKLLIYGASNLATGMPSRFSGSGSGTDYTFTISSLQPEDIATYYCQQVLSSPYTFGGGTKLEIKR
For B1, the mean fluorescence intensity in assay [1] amounted to 44 mfi; in assay [4], 91 mfi; in assay [5], 44 mfi; in assay [6] it was 103 mfi; in assay [7] it was 91 mfi; in assay [8], 103 mfi. Further, the results for the Rosetted cells (>8 beads) in assay [2] and in assay [3] were 53% and 50%, respectively. In addition, the values for the % Cell Staining in assay [5], in assay [7] and in assay [8] were 26.3%, 91.8% and 69.4%, respectively.
